Measured values taken from the supplement of paper PMC10567573.
± gives the standard deviation.

Assay: protein stability index of a GFP-peptide fusion (GPS, HEK-293T) (PSI 1-6); higher = more stable
Settings: c terminus: a fixed tail appended
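Further: 24-mer peptide tiles fused after GFP, lentivirally expressed, FACS-sorted into six equal bins by GFP/DsRed ratio, decoded by Illumina sequencing, PSI is the read-weighted mean bin number.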

Sequence	protein stability index (treatment: DMSO)	protein stability index (treatment: MLN4924 1 uM, 8 h)
LSGVQRVESVFFGGGTPSLASPHT [RSAD1]	2.98 ± 0.27	3.07 ± 0.25
GRDDLESFQLEISGFLKEMACPYS [FAM98B]	2.29 ± 0.3	2.67 ± 0.75
AGLENTVAETECRYALQLQQIQGL [KRT13]	3.12 ± 0.24	2.91 ± 0.19
LLATFPRRALAPPSAGFRCCAAPG [ANKRD9]	2.47 ± 0.16	2.45 ± 0.14
WLLTKIDHWNNEKERILLVTDKTL [TPRG1]	2.11 ± 0.41	2.16 ± 0.28
PCIRNVTSPTRQHHVEREKDHSSS [BTBD10]	5.23 ± 0.14	5.02 ± 0.42
HSMRNSLESTLAETEARYSSQLAQ [KRT36]	4.53 ± 0.22	4.57 ± 0.17
RMRYEGVVDIFQTVKMLRTQRPAM [PTPRD]	2.18 ± 0.18	2.38 ± 0.29
PSAPEALHSLPGVSLSLENRELWK [TBX6]	3.94 ± 0.19	3.96 ± 0.33
AEAKRDAGIREAKAKQEKVSAQYL [FLOT1]	4.88 ± 0.32	5.094 ± 0.024
CTGTEAHISSCKLGPQVSLDPMKN [LOXL2]	3.5 ± 0.29	3.81 ± 0.11
LLATAEQEQLSLSQRQAKELKLEQ [LRRC45]	4.88 ± 0.21	5.02 ± 0.15
KPYTCSVCGKSFSRTTCLFLHLRT [ZNF8]	2.54 ± 0.39	2.89 ± 0.7
RILWKKIQENQRNLYEEGRTAFLW [TRIM43]	2.08 ± 0.36	2.31 ± 0.28
KECKDRGFEYDGKINAWDLYYYMT [NLN]	2.52 ± 0.3	2.16 ± 0.29
ESLDYDRCINDPYLEVLETMDNKK [CLCN6]	5.21 ± 0.25	5.29 ± 0.37
PAMQRYVKRLHEVGRTEPELLVAH [HMOX1]	3.1 ± 0.29	3.37 ± 0.29
CRLGYGCGYEGCRYGCGHRGCGDG [KRTAP19-2]	3.01 ± 0.46	3.11 ± 0.41
CHKYDRNIQVTGSAALFYLTNSEY [ZER1]	2.28 ± 0.34	1.97 ± 0.23
EKHPKKPEPQQKAPLVPPPPPPPP [SRPK2]	5.42 ± 0.22	5.47 ± 0.09
QKEVAGFVLNRLQYAIISEAWRLV [CRYL1]	3.43 ± 0.53	3.37 ± 0.27
VQESQSERLQAAGTDSAGPKTVPS [ELOA2]	5.29 ± 0.38	5.19 ± 0.35
RLGRCMRRLRDMVERPHSGLPGKV [KCNG1]	2.4 ± 0.17	2.69 ± 0.24

Sequence	protein stability index (treatment: DMSO)	protein stability index (treatment: MLN4924 1 uM, 8 h)
HTRQLISCGGDGGIVVWNMDVERQ [WDFY2]	2.55 ± 0.36	2.4 ± 0.14
HRDIKPDNLLLDAKGHVKLSDFGL [STK38L]	3.27 ± 0.23	3.4 ± 0.15
ASYVVFRIIYMLLITIATFQIAAN [SLC19A2]	3.09 ± 0.94	3.19 ± 0.18
PEIDMFLNVATFLDPRYKRLPFLS [ZBED1]	2.42 ± 0.43	2.25 ± 0.48
LRSRASRCRPRSLIDYKSYMDTKL [FAM189A2]	2.3 ± 0.28	2.19 ± 0.23
TDAFLDRPPTPLFIPAKTGKDVAT [RSPH3]	4.58 ± 0.18	4.6 ± 0.22
SSITEAVPSESEPPALQNNLLSPL [NFE2L1]	4.75 ± 0.12	4.75 ± 0.21
DHFQKFLPTVGGQLGTAGQGFSYS [MYOZ1]	2.81 ± 0.13	2.79 ± 0.27
RIGKRPDLLTFVQNLCKGLSQPTT [NEUROD6]	2.3 ± 0.22	2.17 ± 0.083
RRKRTYWNDSCGEDMEASDYELED [WEE1]	4.37 ± 0.3	4.92 ± 0.27
QMAKKAEAFQLYQEAAQLDMLLEK [FLOT1]	2.73 ± 0.36	3.21 ± 0.64
TVTLTVAVADSIPQVLADLGSFES [PCDHGA10]	2.28 ± 0.32	2.11 ± 0.093
IVNDELYLNGASVLPHKSIGESVP [GMPPB]	3.67 ± 0.24	3.4 ± 0.29
DTSMDGTEPPQNPVTPLGLQNEVP [SERTAD3]	5.4 ± 0.19	5.38 ± 0.34
FDSHRLPGDCFLLLVLLLYAPVGF [AUP1]	3.02 ± 0.62	3.15 ± 0.17
EIKSMKKRMSELCIDFNKNLNEDD	4.64 ± 0.6	
LAGSESLPVETLGPASRMDPESER [PBXIP1]	5.2 ± 0.18	5.21 ± 0.21
PLLQSIHQLDFVQVKASSPVPATP [TRIM9]	3.02 ± 0.18	3.2 ± 0.21
IDTVYSTAFAPKMIVDLLSEKKTI [OR4A15]	2.37 ± 0.19	2.52 ± 0.26
MGGTTSTRRVTFEADENENITVVK [CHCHD3]	4.95 ± 0.27	5.11 ± 0.21
QSLRDLGVKISEQQAEKILKSMDK [SLC25A25]	4.12 ± 0.28	4.19 ± 0.35
LQLQKGSDTEAQCEVMQEIVDQVL [INTS3]	3.63 ± 0.35	3.93 ± 0.19
